Laboratory results from patent US20150259425A1 (AbbVie / Abbott, published 2015).
One block for each binder: values may come before it.

How the values were obtained:
recombinant human CD16a [1] = target: T1, recombinant human CD16a (human, UniProt P08637 17-208, limits assumed); assay: AlphaScreen, recombinant human CD16a in solution; batch: 100 L with extra glycine
T1 construct: Recombinant human CD16a solution used in the AlphaScreen assay; also called CD16a receptor; human CD16a receptor
Procedure: (§1) A CD16a binding assay was performed using AlphaScreen (PerkinElmer) method to assess the binding potency of the antibody Fc region of four different antibodies to human CD16a receptor. The antibody solution was first mixed with a recombinant human CD16a solution and assay buffer, and then Alphascreen donor beads and antibody acceptor beads were added. The mixture was incubated in a light protected location for 4 hours at room temperature and the fluorescent signal was detected using a plate reader with laser excitation at 680 nm and light emission 520-620 nm. The binding potency relative to the antibody reference cultured in a basal medium without excess glycine was reported.

recombinant human CD16a [2] = target: T1, recombinant human CD16a; assay: AlphaScreen, recombinant human CD16a in solution; batch: 250 L control medium
Procedure: as §1

recombinant human CD16a [3] = target: T1, recombinant human CD16a; assay: AlphaScreen, recombinant human CD16a in solution; batch: 2 L control medium
Procedure: as §1

recombinant human CD16a [4] = target: T1, recombinant human CD16a; assay: AlphaScreen, recombinant human CD16a in solution; batch: 2 L with extra glycine
Procedure: as §1

recombinant human CD16a [5] = target: T1, recombinant human CD16a; assay: AlphaScreen, recombinant human CD16a; high glycine batch against control batch
Procedure: as §1

recombinant human CD16a [6] = target: T1, recombinant human CD16a; assay: AlphaScreen, recombinant human CD16a in solution; dose response study, batch: 2 L control (2 mM glycine)
Procedure: as §1

recombinant human CD16a [7] = target: T1, recombinant human CD16a; assay: AlphaScreen, recombinant human CD16a in solution; dose response study, batch: 2 L with extra 15 mM glycine
Procedure: as §1

recombinant human CD16a [8] = target: T1, recombinant human CD16a; assay: AlphaScreen, recombinant human CD16a in solution; dose response study, batch: 2 L with extra 5 mM glycine
Procedure: as §1

recombinant human CD16a [9] = target: T1, recombinant human CD16a; assay: AlphaScreen, recombinant human CD16a in solution; batch: 1 kL control medium
Procedure: as §1

recombinant human CD16a [10] = target: T1, recombinant human CD16a; assay: AlphaScreen, recombinant human CD16a in solution; batch: 1 kL control (GMP)
Procedure: as §1

recombinant human CD16a [11] = target: T1, recombinant human CD16a; assay: AlphaScreen, recombinant human CD16a in solution; batch: 100 L control medium
Procedure: as §1

recombinant human CD16a [12] = target: T1, recombinant human CD16a; assay: AlphaScreen, recombinant human CD16a in solution; batch: 50 L with extra glycine
Procedure: as §1

recombinant human CD16a [13] = target: T1, recombinant human CD16a; assay: AlphaScreen, recombinant human CD16a in solution; dose response study, batch: 2 L with extra 30 mM glycine
Procedure: as §1

recombinant human CD16a [14] = target: T1, recombinant human CD16a; assay: AlphaScreen, recombinant human CD16a in solution; batch: 1 kL with extra glycine
Procedure: as §1

CD16a Binding Relative to Reference (recombinant human CD16a [1]): 137% | CD16a Binding Relative to Reference (recombinant human CD16a [2]): 100% | CD16a Binding Relative to Reference (recombinant human CD16a [3]): 147% | CD16a Binding Relative to Reference (recombinant human CD16a [4]): 277% | increase in binding affinity relative to the control antibody (basal medium, 2 mM glycine) (recombinant human CD16a [5]): 40 % increase
B1: PDL241 (antibody, human IgG1, kappa)
heavy: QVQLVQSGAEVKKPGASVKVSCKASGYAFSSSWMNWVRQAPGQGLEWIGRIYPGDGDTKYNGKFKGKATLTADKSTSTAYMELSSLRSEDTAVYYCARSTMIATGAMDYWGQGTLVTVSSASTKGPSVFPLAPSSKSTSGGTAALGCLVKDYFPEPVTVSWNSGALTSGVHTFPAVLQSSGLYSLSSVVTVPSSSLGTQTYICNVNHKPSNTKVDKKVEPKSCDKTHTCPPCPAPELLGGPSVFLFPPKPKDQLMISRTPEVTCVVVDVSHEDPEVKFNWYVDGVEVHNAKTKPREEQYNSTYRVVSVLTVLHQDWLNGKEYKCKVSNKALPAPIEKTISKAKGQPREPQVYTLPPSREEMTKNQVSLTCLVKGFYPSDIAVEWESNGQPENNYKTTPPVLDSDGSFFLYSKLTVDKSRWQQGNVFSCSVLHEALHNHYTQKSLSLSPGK
light: DIQMTQSPSSLSASVGDRVTITCKASQDVSTAVAWYQQKPGKAPKLLIYSASYRYTGVPDRFTGSGSGTDFTLTISSLQPEDFATYYCQQHYSTPPYTFGGGTKVEIKRTVAAPSVFIFPPSDEQLKSGTASVVCLLNNFYPREAKVQWKVDNALQSGNSQESVTEQDSKDSTYSLSSTLTLSKADYEKHKVYACEVTHQGLSSPVTKSFNRGEC
modifications: N-linked glycans; the share of non-fucosylated glycoforms differs between batches
notes: Humanized IgG1 to CS1, made in NS0 cells; Batches differ only in glycoforms

CD16a Binding Relative to Reference (recombinant human CD16a [6]): 130 relative to Reference (no unit printed; percent as in Table 15) | CD16a Binding Relative to Reference (recombinant human CD16a [7]): 151 relative to Reference (no unit printed; percent as in Table 15) | CD16a Binding Relative to Reference (recombinant human CD16a [8]): 146 relative to Reference (no unit printed; percent as in Table 15) | CD16a Binding Relative to Reference (recombinant human CD16a [9]): 96% | CD16a Binding Relative to Reference (recombinant human CD16a [10]): 65% | CD16a Binding Relative to Reference (recombinant human CD16a [11]): 110% | CD16a Binding Relative to Reference (recombinant human CD16a [12]): 136% | CD16a Binding Relative to Reference (recombinant human CD16a [13]): 144 relative to Reference (no unit printed; percent as in Table 15) | increase in binding affinity relative to the control antibody (basal medium, 2 mM glycine) (recombinant human CD16a [5]): 40 % increase
B2: enavatuzumab (antibody, human IgG1, kappa)
heavy: not shown
light: DIQMTQSPSSLSASVGDRVTITCRASQSVSTSSYSYMHWYQQKPGKAPKLLIKYASNLESGVPSRFSGSGSGTDFTLTISSLQPEDFATYYCQHSWEIPYTFGGGTKVEIKRTVAAPSVFIFPPSDEQLKSGTASVVCLLNNFYPREAKVQWKVDNALQSGNSQESVTEQDSKDSTYSLSSTLTLSKADYEKHKVYACEVTHQGLSSPVTKSFNRGEC
modifications: N-linked glycans; the share of non-fucosylated glycoforms differs between batches
notes: Humanized IgG1 to TweakR, made in NS0 cells; Batches differ only in glycoforms; also called PDL192

CD16a Binding Relative to Reference (recombinant human CD16a [3]): 69% | CD16a Binding Relative to Reference (recombinant human CD16a [4]): 137% | increase in binding affinity relative to the control antibody (basal medium, 2 mM glycine) (recombinant human CD16a [5]): 40 % increase
B3: daclizumab (antibody, human IgG1, kappa)
heavy: not shown
light: DIQMTQSPSTLSASVGDRVTITCSASSSISYMHWYQQKPGKAPKLLIYTTSNLASGVPARFSGSGSGTEFTLTISSLQPDDFATYYCHQRSTYPLTFGSGTKVEVKRTVAAPSVFIFPPSDEQLKSGTASVVCLLNNFYPREAKVQWKVDNALQSGNSQESVTEQDSKDSTYSLSSTLTLSKADYEKHKVYACEVTHQGLSSPVTKSFNR
modifications: N-linked glycans; the share of non-fucosylated glycoforms differs between batches
notes: Humanized IgG1 to CD25, made in NS0 cells; the entries may be incomplete; also called DAC HYP

CD16a Binding Relative to Reference (recombinant human CD16a [14]): 146% | CD16a Binding Relative to Reference (recombinant human CD16a [1]): 128% | CD16a Binding Relative to Reference (recombinant human CD16a [9]): 100% | increase in binding affinity relative to the control antibody (basal medium, 2 mM glycine) (recombinant human CD16a [5]): 40 % increase
B4: elotuzumab (antibody, human IgG1, kappa)
heavy: not shown
light: DIQMTQSPSSLSASVGDRVTITCKASQDVGIAVAWYQQKPGKVPKLLIYWASTRHTGVPDRFSGSGSGTDFTLTISSLQPEDVATYYCQQYSSYPYTFGQGTKVEIKRTVAAPSVFIFPPSDEQLKSGTASVVCLLNNFYPREAKVQWKVDNALQSGNSQESVTEQDSKDSTYSLSSTLTLSKADYEKHKVYACEVTHQGLSSPVTKSFNRGEC
modifications: N-linked glycans; the share of non-fucosylated glycoforms differs between batches (control vs high glycine medium)
notes: IgG1 made in NS0 cells; also called HuLuc63; HuLuc 63
